From patent US7521053 (dated 2009)
Residue numbers refer to the chain shown, from its start.

T1: hAng-1 (human, UniProt Q15389)
T1 chain: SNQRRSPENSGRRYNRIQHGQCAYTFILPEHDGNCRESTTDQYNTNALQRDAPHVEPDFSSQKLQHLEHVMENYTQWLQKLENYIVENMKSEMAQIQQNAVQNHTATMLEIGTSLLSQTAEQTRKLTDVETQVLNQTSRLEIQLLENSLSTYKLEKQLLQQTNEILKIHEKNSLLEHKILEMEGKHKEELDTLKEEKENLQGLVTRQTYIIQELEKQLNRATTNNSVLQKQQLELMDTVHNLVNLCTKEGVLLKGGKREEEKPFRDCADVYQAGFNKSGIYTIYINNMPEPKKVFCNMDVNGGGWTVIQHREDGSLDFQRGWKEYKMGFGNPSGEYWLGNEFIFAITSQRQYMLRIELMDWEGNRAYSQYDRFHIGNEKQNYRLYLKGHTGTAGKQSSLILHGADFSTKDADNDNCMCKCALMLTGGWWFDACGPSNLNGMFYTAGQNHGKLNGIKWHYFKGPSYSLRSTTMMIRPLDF

T2: hAng-2 (human, UniProt O15123)
T2 chain: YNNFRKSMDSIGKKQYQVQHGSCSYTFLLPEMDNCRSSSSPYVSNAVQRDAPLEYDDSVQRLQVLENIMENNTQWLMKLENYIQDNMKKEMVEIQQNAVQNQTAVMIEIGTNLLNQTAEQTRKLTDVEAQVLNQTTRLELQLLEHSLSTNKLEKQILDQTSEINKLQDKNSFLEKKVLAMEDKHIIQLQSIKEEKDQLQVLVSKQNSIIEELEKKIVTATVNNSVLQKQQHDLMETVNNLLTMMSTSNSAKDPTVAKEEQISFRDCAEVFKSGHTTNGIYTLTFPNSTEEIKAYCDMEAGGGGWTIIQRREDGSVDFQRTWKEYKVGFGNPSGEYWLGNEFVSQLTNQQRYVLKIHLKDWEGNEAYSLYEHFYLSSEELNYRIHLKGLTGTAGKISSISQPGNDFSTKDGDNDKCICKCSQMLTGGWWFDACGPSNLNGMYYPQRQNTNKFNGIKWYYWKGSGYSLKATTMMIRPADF

T3: mAng-2 (mouse, UniProt O35608)
T3 chain: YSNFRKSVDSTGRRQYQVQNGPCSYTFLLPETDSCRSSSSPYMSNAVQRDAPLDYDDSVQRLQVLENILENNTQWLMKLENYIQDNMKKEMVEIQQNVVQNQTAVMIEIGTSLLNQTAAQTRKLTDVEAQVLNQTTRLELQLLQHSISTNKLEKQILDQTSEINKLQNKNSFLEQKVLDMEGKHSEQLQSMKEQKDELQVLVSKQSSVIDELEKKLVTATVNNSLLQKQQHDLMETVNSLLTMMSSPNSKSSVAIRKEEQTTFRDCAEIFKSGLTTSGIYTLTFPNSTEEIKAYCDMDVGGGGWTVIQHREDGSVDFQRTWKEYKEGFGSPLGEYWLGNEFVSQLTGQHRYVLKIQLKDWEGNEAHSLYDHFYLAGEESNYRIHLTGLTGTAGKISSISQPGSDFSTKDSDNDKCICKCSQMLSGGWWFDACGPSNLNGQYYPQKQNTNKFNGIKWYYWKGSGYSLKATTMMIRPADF

B1: Ab 537 (antibody, V domains shown)
VH: QVQLVQSGAEVKKPGSSVKVSCKASGGTFSSYAISWVRQAPGQGLEWMGGIIPILGIANYAQKFQGRVTITADKSTSTAYMELSGLGSEDTAVYYCARGSSDAAVAGMWGQGTLVTVSS
VL: QSVLTQPPSVSAAPGQDVTISCSGNNSNIGNNYVSWYQQVPGTAPKLLVYDNHKRPSGISDRFSGSKSDTSATLDITGLQPGDEADYYCGTWDTSLSANWVFGGGTKLTVL
B2: Ab 551 (antibody, V domains shown)
VH: QVQLVQSGAEVKKPGSSVKVSCKASGGTFSSYAISWVRQAPGQGLEWMGGIIPIFGTANYAQKFQGRVTITADESTSTAYMELSSLRSEDTAVYYCARGYDFWSGYSLDAFDIWGQGTMVTVSS
VL: not shown
B3: Ab 553 (antibody, V domains shown)
VH: QVQLVQSGAEVKKPGASVKVSCKASGYTFTSYAMHWVRQAPGQRLEWMGWINAGNGNTKYSQKFQGRVTITRDTSASTAYMELSGLRSEDTAVYYCARGVDDYGGNSWAFDIWGQGTMVTVSS
VL: DIVMTQSPLSLPVTPGEPASISCRSSQSLLHSNGYNYLDWYLQKPGQSPQLLIYLGSNRASGVPDRFTGSGSATDFTLRISRVEAEDVGVYYCMQALQTPLTFGGGTKVEIK
B4: Ab 540 (antibody, V domains shown)
VH: QVQLVQSGAEVKKPGSSVKVSCKASGGTFSSYAISWVRQAPGQGLEWMGGIIPILGIANYAQKFQGRVTITADKFTSTAYMELSSLGSEDTAVYYCARAVPGTEDAFDIWGQGTMVTVSS
VL: QSVLTQPPSVSAAPGQKVTISCSGSSSNIGANYVSWYQQLPGTAPKLLIYNNNKRPSGIPDRFSGSKSDTSATLGITGLQTGDEADYYCGAWDSSLSASWVFGGGTKLTVL
B5: Ab 531 (antibody, V domains shown)
VH: EVQLVQSGAEVKKPGSSVKVSCKASGGTFSSYAISWVRQAPGQGLEWMGGIIPILGIANYAQKFQGRVTITADKSTNTAYMELTSLTSDDTAVYYCARDREDTAMVFNYWGQGTLVTVSS
VL: B4 VL with I20V, A31N, N51D, D69G, A91T, S99F
B6: Ab 533 (antibody, V domains shown)
VH: EVQLVQSGGGVVQPGRSLRLSCAASGFTFSSYGMHWVRQAPGKGLEWVSYISSSGSTIYYADSVKGRFTISRDNAKNSLYLQMNSLRAEDTAVYYCARDLLDYDILTGYGYWGQGTLVTVSS
VL: SYELTQPPSVSVSPGQTARITCSGDALPKQYAYWYQQKPGQAPVLVIYKDSERPSGIPERFSGSSSGTTVTLTISGVQAEDEADYYCQSADSSHVVFGGGTKLTVL
B7: Ab 528 (antibody, V domains shown)
VH: QVQLVQSGAEVKKPGSSVKVSCKASGGTFSSYAISWVRQAPGQGLEWMGGIIPIFGTANYAQKFQGRVTITADESTSTAYMELSSLRSEDTAVYYCARGVVGDFDWLSFFDYWGQGTLVTVSS
VL: SYELTQPPSVSVSPGQTASITCSGDKLGYTYTSWFQQKPGQSPVLVIFQDFKRPSGIPERFSGSNSGNTATLTISGTQAMDEADYYCQAWDSTTAVVFGTGTKVTVL
B8: Ab 543 (antibody, V domains shown)
VH: QVQLVQSGAEVKKPGSSVKVSCKASGGTFSSYAISWVRQAPGQGLEWMGRIIPILGIANYAQKFQGRVTITADKSTSTAYMELSSLRSEDTAVYYCARPYYDFWSGPGGMDVWGQGTTVTVSS
VL: not shown
B9: Ab 555 (antibody, V domains shown)
VH: QVQLQESGGGVVQPGRSLRLSCAASGFTFSSYAMHWVRQAPGKGLEWVAVISYDGSNKYYADSVKGRFTISRDNSKNTLYLQMNSLRAEDTAVYYCARSASDHYYDSSGYYSDAFDIWGQGTMVTVSS
VL: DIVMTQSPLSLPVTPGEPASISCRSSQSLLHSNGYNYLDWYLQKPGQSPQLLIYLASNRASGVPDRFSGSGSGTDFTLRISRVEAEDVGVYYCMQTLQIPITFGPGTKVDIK
B10: Ab 544 (antibody, V domains shown)
VH: QVQLVQSGAEVKKPGASVKVSCKASGGTFSSYAISWVRQAPGQGLEWMGGIIPIFGTANYAQKFQGRVTITADESTSTAYMELSSLRSEDTAVYYCARFESGYWGDAFDIWGQGTMVTVSS
VL: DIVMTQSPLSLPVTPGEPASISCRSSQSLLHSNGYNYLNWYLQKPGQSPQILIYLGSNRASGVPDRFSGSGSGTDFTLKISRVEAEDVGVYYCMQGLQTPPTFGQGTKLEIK
B11: Ab 535 (antibody, V domains shown)
VH: B10 VH with A16S, E74K, R98A, E100S, S101P, G102F, Y103T, W104E, G105T
VL: QSVLTQPPSVSAAPGQKVTISCSGSNSNIGNNFVSWYQQLPGTAPKLLVYDNNKRPSGIPDRFSGSKSGTSATLGITGLQTGDEADYYCGTWDSSLSAAEVVFGGGTKLTVL
B12: Ab 546 (antibody, V domains shown)
VH: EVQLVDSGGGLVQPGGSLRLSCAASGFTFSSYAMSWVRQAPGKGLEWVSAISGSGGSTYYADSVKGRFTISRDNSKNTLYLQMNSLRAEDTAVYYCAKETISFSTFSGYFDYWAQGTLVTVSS
VL: QSVLTQPSSVSEAPRQRVTISCSGSASNIGANGVSWYHQVPGKAPRLLLSHDGLVTSGVPDRLSVSKSGTSASLAISGLHSDDEGDYYCAVWDDSLNAVVFGGGTKLTVL
B13: Ab 565 (antibody, V domains shown)
VH: QVQLVQSGAEVKKPGSSVKVSCKASGGTFSSYAISWVRQAPGQGLEWMGGIIPIFGTANYAQKFQGRVTITADESTSTAYMELSSLRSEDTAVYYCARSPIYYDILTGIDAFDIWGQGTMVTVSS
VL: EIVLTQSPGTLSLSPGERATLSCRASQSVSSSSLAWYQQKPGQAPRLLVYAASSRATGIPDRFSGSGSGTDFTLTISRLEPEDFAVYYCQHYGSSPRTFGQGTKVEIK

Assays:
hAng-1 [1] = target: T1, hAng-1; assay: competition ELISA (no inhibition)
hAng-2 = target: T2, hAng-2; assay: competition ELISA (Tie2-Fc)
mAng-2 = target: T3, mAng-2; assay: competition ELISA (Tie2-Fc)
hAng-1 [2] = target: T1, hAng-1; assay: competition ELISA (Tie2-Fc)

Row | binding result (hAng-1 [1]) | IC50 (hAng-2) [nM] | IC50 (mAng-2) [nM] | IC50 (hAng-1 [2]) [nM] | Binder
1 | no binding | – | – | – | B1
2 | no binding | – | – | – | B2
3 | no binding | – | – | – | B3
4 | no binding | – | – | – | B4
5 | no binding | – | – | – | B5
6 | no binding | 0.3 | 0.08 | – | B6
7 | no binding | – | – | – | B7
8 | no binding | – | – | – | B8
9 | no binding | – | – | – | B9
10 | – | 0.97 | 1.82 | 23.3 | B10
11 | no binding | – | – | – | B11
12 | no binding | 0.37 | 1.09 | – | B12
13 | no binding | 0.26 | 0.26 | – | B13
